B1: Peptide 123 (peptide)
peptide: YXEGTXTSDYSIXLDKKAQXEFIEYLIEGGPSSG
modifications: Aib2; αMeF6; αMeL13; K17((2-[2-(2-Amino-ethoxy)-ethoxy]-acetyl)2-(γGlu)-CO-(CH2)18-CO2H); Aib20; C-terminal NH2
B2: Peptide 154 (peptide)
peptide: Y[Aib]EGT[αMePhe(2-F)]TSDHSI[αMeL]LDEK([AEEA-AEEA-γGlu-C20 diacid])AQ[Aib]EFIEYLIEGGPSSGAPPPS-NH2
modifications: N-terminus assumed
SMILES: CC[C@H](C)[C@H](NC(=O)[C@H](CC(C)C)NC(=O)[C@H](Cc1ccc(O)cc1)NC(=O)[C@H](CCC(=O)O)NC(=O)[C@@H](NC(=O)[C@H](Cc1ccccc1)NC(=O)[C@H](CCC(=O)O)NC(=O)C(C)(C)NC(=O)[C@H](CCC(N)=O)NC(=O)[C@H](C)NC(=O)[C@H](CCCCNC(=O)COCCOCCNC(=O)COCCOCCNC(=O)CC[C@H](NC(=O)CCCCCCCCCCCCCCCCCCC(=O)O)C(=O)O)NC(=O)[C@H](CCC(=O)O)NC(=O)[C@H](CC(=O)O)NC(=O)[C@H](CC(C)C)NC(=O)[C@](C)(CC(C)C)NC(=O)[C@@H](NC(=O)[C@H](CO)NC(=O)[C@H](Cc1c[nH]cn1)NC(=O)[C@H](CC(=O)O)NC(=O)[C@H](CO)NC(=O)[C@@H](NC(=O)[C@](C)(Cc1ccccc1F)NC(=O)[C@@H](NC(=O)CNC(=O)[C@H](CCC(=O)O)NC(=O)C(C)(C)NC(=O)[C@@H](N)Cc1ccc(O)cc1)[C@@H](C)O)[C@@H](C)O)[C@@H](C)CC)[C@@H](C)CC)C(=O)N[C@@H](CCC(=O)O)C(=O)NCC(=O)NCC(=O)N1CCC[C@H]1C(=O)N[C@@H](CO)C(=O)N[C@@H](CO)C(=O)NCC(=O)N[C@@H](C)C(=O)N1CCC[C@H]1C(=O)N1CCC[C@H]1C(=O)N1CCC[C@H]1C(=O)N[C@@H](CO)C(N)=O
B3: Peptide 115 (peptide)
peptide: YXEGTXTSDYSIXLDEKAQXAFIEYLIEGGPSSGAPPPS
modifications: Aib2; αMeF6; αMeL13; K17((2-[2-(2-Amino-ethoxy)-ethoxy]-acetyl)2-(γGlu)-CO-(CH2)18-CO2H); Aib20; C-terminal NH2
B4: Peptide 150 (peptide)
peptide: YXEGTXTSDYSIXLDEKAQXEFISYLIEGGPSSGAPPPS
modifications: Aib2; αMeF(2F)6; αMeL13; K17((2-[2-(2-Amino-ethoxy)-ethoxy]-acetyl)2-(γGlu)-CO-(CH2)18-CO2H); Aib20; C-terminal NH2
B5: Peptide 129 (peptide)
peptide: YXEGTXTSDLSILLDKKAQXAFIEYLIEGGPSSGAPPPS
modifications: Aib2; αMeF6; K17((2-[2-(2-Amino-ethoxy)-ethoxy]-acetyl)2-(γGlu)-CO-(CH2)18-CO2H); Aib20; C-terminal NH2
B6: Peptide 20 (peptide)
peptide: YXEGTFTSDYSIXLDKKAQXAFIEYLIEGGPSSGAPPPS
modifications: Aib2; αMeL13; K17((2-[2-(2-Amino-ethoxy)-ethoxy]-acetyl)2-(γGlu)-CO-(CH2)18-CO2H); Aib20; C-terminal NH2
B7: Peptide 126 (peptide)
peptide: YXEGTXTSDYSIXLDKKAQXAFIEYLIEAGPSSGAPPPS
modifications: Aib2; αMeF6; αMeL13; K17((2-[2-(2-Amino-ethoxy)-ethoxy]-acetyl)2-(γGlu)-CO-(CH2)18-CO2H); Aib20; C-terminal NH2
B8: Peptide 149 (peptide)
peptide: YXEGTXTSDYSIXLDEKAQXEFIVYLIEGGPSSGAPPPS
modifications: Aib2; αMeF(2F)6; αMeL13; K17((2-[2-(2-Amino-ethoxy)-ethoxy]-acetyl)2-(γGlu)-CO-(CH2)18-CO2H); Aib20; C-terminal NH2
B9: Peptide 151 (peptide)
peptide: YXEGTXTSDYSIXLDEKAQXEFIPYLIEGGPSSGAPPPS
modifications: Aib2; αMeF(2F)6; αMeL13; K17((2-[2-(2-Amino-ethoxy)-ethoxy]-acetyl)2-(γGlu)-CO-(CH2)18-CO2H); Aib20; C-terminal NH2
B10: Peptide 137 (peptide)
peptide: YXEGTXTSDYSIXLDKKAQXXFIEYLIEGGPSSGAPPPS
modifications: Aib2; αMeF6; αMeL13; K17((2-[2-(2-Amino-ethoxy)-ethoxy]-acetyl)2-(γGlu)-CO-(CH2)18-CO2H); Aib20; Aad21; C-terminal NH2
B11: Peptide 144 (peptide)
peptide: YXEGTXTSDYSIXLDKKAQHXFIEYLIEGGPSSGAPPPS
modifications: Aib2; αMeF6; αMeL13; K17((2-[2-(2-Amino-ethoxy)-ethoxy]-acetyl)2-(γGlu)-CO-(CH2)18-CO2H); Aib21; C-terminal NH2
B12: Peptide 139 (peptide)
peptide: YXEGTXTSDYSIXLDKKAQXTFIEYLIEGGPSSGAPPPS
modifications: Aib2; αMeF6; αMeL13; K17((2-[2-(2-Amino-ethoxy)-ethoxy]-acetyl)2-(γGlu)-CO-(CH2)18-CO2H); Aib20; C-terminal NH2
B13: Peptide 128 (peptide)
peptide: YXEGTXTSDHSILLDKKAQXAFIEYLIEGGPSSGAPPPS
modifications: Aib2; αMeF6; K17((2-[2-(2-Amino-ethoxy)-ethoxy]-acetyl)2-(γGlu)-CO-(CH2)18-CO2H); Aib20; C-terminal NH2
B14: Peptide 125 (peptide)
peptide: YXEGTXTSDYSIXLDKKAQXAFIEYLIEGGPSSGAPPPS
modifications: Aib2; αMeF6; αMeL13; K17((2-[2-(2-Amino-ethoxy)-ethoxy]-acetyl)2-(γGlu)2-CO-(CH2)18-CO2H); Aib20; C-terminal NH2
B15: Peptide 147 (peptide)
peptide: YXEGTXTSDYSIXLDEKAQXEFIXYLIEGGPSSGAPPPS
modifications: Aib2; αMeF(2F)6; αMeL13; K17((2-[2-(2-Amino-ethoxy)-ethoxy]-acetyl)2-(γGlu)-CO-(CH2)18-CO2H); Aib20; Aad24; C-terminal NH2
B16: Peptide 143 (peptide)
peptide: YXEGTXTSDYSIXLDKKAQXXFIEYLIEGGPSSGAPPPS
modifications: Aib2; αMeF6; αMeL13; K17((2-[2-(2-Amino-ethoxy)-ethoxy]-acetyl)2-(γGlu)-CO-(CH2)18-CO2H); Aib20; Aib21; C-terminal NH2
B17: Peptide 140 (peptide)
peptide: YXEGTXTSDYSIXLDKKAQXDFIEYLIEGGPSSGAPPPS
modifications: Aib2; αMeF6; αMeL13; K17((2-[2-(2-Amino-ethoxy)-ethoxy]-acetyl)2-(γGlu)-CO-(CH2)18-CO2H); Aib20; C-terminal NH2
B18: Peptide 155 (peptide)
peptide: YXEGTXTSDXSIXLDEKAQXEFIEYLIEGGPSSGAPPPS
modifications: Aib2; αMeF(2F)6; cTA10; αMeL13; K17((2-[2-(2-Amino-ethoxy)-ethoxy]-acetyl)2-(γGlu)-CO-(CH2)18-CO2H); Aib20; C-terminal NH2
B19: Peptide 152 (peptide)
peptide: YXEGTXTSDYSIXLDEKAQXEFIXYLIEGGPSSGAPPPS
modifications: Aib2; αMeF(2F)6; αMeL13; K17((2-[2-(2-Amino-ethoxy)-ethoxy]-acetyl)2-(γGlu)-CO-(CH2)18-CO2H); Aib20; Aib24; C-terminal NH2
B20: Peptide 153 (peptide)
peptide: YXEGTXTSDYSIXLDEKAQXEFIHYLIEGGPSSGAPPPS
modifications: Aib2; αMeF(2F)6; αMeL13; K17((2-[2-(2-Amino-ethoxy)-ethoxy]-acetyl)2-(γGlu)-CO-(CH2)18-CO2H); Aib20; C-terminal NH2
B21: Peptide 148 (peptide)
peptide: YXEGTXTSDYSIXLDEKAQXEFIAYLIEGGPSSGAPPPS
modifications: Aib2; αMeF(2F)6; αMeL13; K17((2-[2-(2-Amino-ethoxy)-ethoxy]-acetyl)2-(γGlu)-CO-(CH2)18-CO2H); Aib20; C-terminal NH2
B22: Peptide 118 (peptide)
peptide: YXEGTXTSDYSIXLDEKAQXEFIEYLIEGGPSSGAPPPS
modifications: Aib2; αMeF(2F)6; αMeL13; K17((2-[2-(2-Amino-ethoxy)-ethoxy]-acetyl)2-(γGlu)-CO-(CH2)18-CO2H); Aib20; C-terminal NH2
B23: Peptide 120 (peptide)
peptide: Y[Aib][cTA]GT[αMeF]TSDYSI[αMeL]LDEK([AEEA-AEEA-γGlu-C20 diacid])AQ[Aib]AFIEYLIEGGPSSGAPPPS-NH2
modifications: reading uncertain
B24: Peptide 9 (peptide)
peptide: Y[Aib]EGTFTSDYSILLDSK([AEEA-AEEA-γGlu-C20 diacid])AQ[Aib]AFIEYLIEGGPSSGAPPPS-NH2
modifications: N-terminus assumed
SMILES: CC[C@H](C)[C@H](NC(=O)[C@H](CC(C)C)NC(=O)[C@H](Cc1ccc(O)cc1)NC(=O)[C@H](CCC(=O)O)NC(=O)[C@@H](NC(=O)[C@H](Cc1ccccc1)NC(=O)[C@H](C)NC(=O)C(C)(C)NC(=O)[C@H](CCC(N)=O)NC(=O)[C@H](C)NC(=O)[C@H](CCCCNC(=O)COCCOCCNC(=O)COCCOCCNC(=O)CC[C@H](NC(=O)CCCCCCCCCCCCCCCCCCC(=O)O)C(=O)O)NC(=O)[C@H](CO)NC(=O)[C@H](CC(=O)O)NC(=O)[C@H](CC(C)C)NC(=O)[C@H](CC(C)C)NC(=O)[C@@H](NC(=O)[C@H](CO)NC(=O)[C@H](Cc1ccc(O)cc1)NC(=O)[C@H](CC(=O)O)NC(=O)[C@H](CO)NC(=O)[C@@H](NC(=O)[C@H](Cc1ccccc1)NC(=O)[C@@H](NC(=O)CNC(=O)[C@H](CCC(=O)O)NC(=O)C(C)(C)NC(=O)[C@@H](N)Cc1ccc(O)cc1)[C@@H](C)O)[C@@H](C)O)[C@@H](C)CC)[C@@H](C)CC)C(=O)N[C@@H](CCC(=O)O)C(=O)NCC(=O)NCC(=O)N1CCC[C@H]1C(=O)N[C@@H](CO)C(=O)N[C@@H](CO)C(=O)NCC(=O)N[C@@H](C)C(=O)N1CCC[C@H]1C(=O)N1CCC[C@H]1C(=O)N1CCC[C@H]1C(=O)N[C@@H](CO)C(N)=O

These results are taken from patent US20230293638A1 (Eli Lilly, published 2023).

Numbered stars: 1 amine (or outer) side, 2 acyl side, 3 side chain; on linkers, the order of the positions; unused ones are H or OH. Square brackets hold non-standard residues; d marks the D form. Side chains are listed from the residue outwards. Ends that are not written are not given here. * marks the point of attachment. C20 diacid = O=C(O)CCCCCCCCCCCCCCCCCCC(=O)*; αMePhe(2-F) = C[C@](N)(Cc1ccccc1F)C(=O)O; γGlu = O=C(O)[C@H](CCC(=O)[*:2])N[*:1]; αMeF = C[C@](N)(Cc1ccccc1)C(=O)O; αMeL = CC(C)C[C@](C)(N)C(=O)O; cTA = not defined here; AEEA = NCCOCCOCC(=O)O; Aib = CC(C)(N)C(=O)O

The target of this assay is human GLP-1 receptor (human, UniProt P43220 24-463). Briefly: cell-based or functional assay.
As to B1, the “hGLPIR cAMP EC50 ratio” value came to 1.58.
Turning to B2, the “hGLPIR cAMP EC50 ratio” value was determined as 1.23.
Under B3 stands 0.743; under B4, 0.79; under B5, 0.543.
Under B6 stands 0.577.
On to B7, for which the “hGLPIR cAMP EC50 ratio” value was 0.869.
Consider B8, for which the “hGLPIR cAMP EC50 ratio” value was found to be 0.484.
Under B9 stands 0.0278; under B10, 1.25; under B11, 0.851.
Under B12 stands 1.13.
Take B13: the “hGLPIR cAMP EC50 ratio” value amounted to 0.7.
Under B14 stands 1.31; under B15, 1.13.
Under B16 stands 0.714.
Under B17 stands 1.16; under B18, 0.0978.
B19: the “hGLPIR cAMP EC50 ratio” value was 0.484.
On to B20, for which the “hGLPIR cAMP EC50 ratio” value amounted to 0.501.
Under B21 stands 0.859; under B22, 1.13.
Under B23 stands 0.319; under B24, 0.314.
